{
  "source": "patent EP4335864A1",
  "target": "recombinant murine IFN-α subtype A (murine)",
  "sequence (P01573 24-190)": "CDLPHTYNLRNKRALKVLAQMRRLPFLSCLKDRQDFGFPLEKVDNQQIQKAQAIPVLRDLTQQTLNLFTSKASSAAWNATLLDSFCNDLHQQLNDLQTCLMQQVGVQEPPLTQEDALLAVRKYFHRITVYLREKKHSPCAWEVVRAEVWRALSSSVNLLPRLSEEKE",
  "test": "cell-based or functional assay",
  "data": [
    {"substance": "D3 immunoglobulin-like domain of vaccinia virus B18 protein, 6xHis tagged, expressed in bacteria (from UniProt P21077 254-353) (receptor)", "values": [
      {"measurement": "amount of protein for full IFN neutralization, against B18", "result": 1}
    ]}
  ]
}
